Paper PMC1140370
Read-outs that look alike come from different tables or passages of the source.

Assays:
Test in all cases: EMSA
Mcm4/6/7 complex [1] = target: T1, Mcm4/6/7 complex (mouse, UniProt P49717;Q61881;P97311 1-862;1-719;1-821)
Mcm4/6/7 complex [2] = target: T1, Mcm4/6/7 complex; remark: listed apart in the source
Mcm4/6/7 complex [3] = target: T1, Mcm4/6/7 complex; remark: listed apart in the source
Mcm4/6/7 complex [4] = target: T1, Mcm4/6/7 complex; remark: listed apart in the source
Mcm4/6/7 complex [5] = target: T1, Mcm4/6/7 complex; remark: listed apart in the source

T1 sequence (P49717 whole entry, chain 1 of 3): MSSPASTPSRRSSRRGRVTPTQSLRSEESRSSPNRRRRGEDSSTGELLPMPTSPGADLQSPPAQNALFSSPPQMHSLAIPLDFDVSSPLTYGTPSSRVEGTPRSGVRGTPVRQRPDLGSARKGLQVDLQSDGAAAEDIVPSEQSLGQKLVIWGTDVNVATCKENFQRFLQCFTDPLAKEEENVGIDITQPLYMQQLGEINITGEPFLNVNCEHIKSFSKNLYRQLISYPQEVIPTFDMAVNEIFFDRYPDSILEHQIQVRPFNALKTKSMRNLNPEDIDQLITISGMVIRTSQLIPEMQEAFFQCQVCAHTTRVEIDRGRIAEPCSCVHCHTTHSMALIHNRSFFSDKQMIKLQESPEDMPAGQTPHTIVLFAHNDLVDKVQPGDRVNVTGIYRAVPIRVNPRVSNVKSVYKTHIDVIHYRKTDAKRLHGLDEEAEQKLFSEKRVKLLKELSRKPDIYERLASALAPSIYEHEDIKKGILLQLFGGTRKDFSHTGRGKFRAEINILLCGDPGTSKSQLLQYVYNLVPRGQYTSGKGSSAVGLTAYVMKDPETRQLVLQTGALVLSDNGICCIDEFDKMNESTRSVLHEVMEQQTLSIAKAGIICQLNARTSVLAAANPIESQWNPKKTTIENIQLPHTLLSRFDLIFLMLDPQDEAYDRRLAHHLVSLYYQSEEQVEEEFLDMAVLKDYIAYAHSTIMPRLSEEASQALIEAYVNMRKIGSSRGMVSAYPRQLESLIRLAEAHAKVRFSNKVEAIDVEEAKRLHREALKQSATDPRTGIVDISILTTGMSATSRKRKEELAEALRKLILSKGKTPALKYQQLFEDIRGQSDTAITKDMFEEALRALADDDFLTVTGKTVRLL
T1 sequence (Q61881 whole entry, chain 2 of 3): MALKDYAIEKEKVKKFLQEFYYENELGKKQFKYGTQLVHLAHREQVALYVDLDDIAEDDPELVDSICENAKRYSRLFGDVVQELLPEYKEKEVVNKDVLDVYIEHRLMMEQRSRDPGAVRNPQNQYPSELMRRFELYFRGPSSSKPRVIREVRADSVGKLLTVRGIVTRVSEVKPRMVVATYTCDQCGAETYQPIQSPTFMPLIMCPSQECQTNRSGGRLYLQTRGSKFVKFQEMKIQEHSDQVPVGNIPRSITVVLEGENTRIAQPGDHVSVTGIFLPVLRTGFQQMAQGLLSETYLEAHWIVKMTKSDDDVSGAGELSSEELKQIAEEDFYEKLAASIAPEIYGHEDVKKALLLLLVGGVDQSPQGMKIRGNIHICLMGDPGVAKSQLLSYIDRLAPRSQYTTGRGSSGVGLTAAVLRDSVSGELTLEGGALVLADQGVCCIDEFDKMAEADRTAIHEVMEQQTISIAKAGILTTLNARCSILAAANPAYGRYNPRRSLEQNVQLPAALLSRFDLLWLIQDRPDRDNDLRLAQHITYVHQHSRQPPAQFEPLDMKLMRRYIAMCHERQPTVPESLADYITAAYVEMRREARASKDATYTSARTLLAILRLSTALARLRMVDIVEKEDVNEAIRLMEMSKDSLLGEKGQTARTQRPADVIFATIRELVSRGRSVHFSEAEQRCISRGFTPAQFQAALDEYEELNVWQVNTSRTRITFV
T1 sequence (P97311 whole entry, chain 3 of 3): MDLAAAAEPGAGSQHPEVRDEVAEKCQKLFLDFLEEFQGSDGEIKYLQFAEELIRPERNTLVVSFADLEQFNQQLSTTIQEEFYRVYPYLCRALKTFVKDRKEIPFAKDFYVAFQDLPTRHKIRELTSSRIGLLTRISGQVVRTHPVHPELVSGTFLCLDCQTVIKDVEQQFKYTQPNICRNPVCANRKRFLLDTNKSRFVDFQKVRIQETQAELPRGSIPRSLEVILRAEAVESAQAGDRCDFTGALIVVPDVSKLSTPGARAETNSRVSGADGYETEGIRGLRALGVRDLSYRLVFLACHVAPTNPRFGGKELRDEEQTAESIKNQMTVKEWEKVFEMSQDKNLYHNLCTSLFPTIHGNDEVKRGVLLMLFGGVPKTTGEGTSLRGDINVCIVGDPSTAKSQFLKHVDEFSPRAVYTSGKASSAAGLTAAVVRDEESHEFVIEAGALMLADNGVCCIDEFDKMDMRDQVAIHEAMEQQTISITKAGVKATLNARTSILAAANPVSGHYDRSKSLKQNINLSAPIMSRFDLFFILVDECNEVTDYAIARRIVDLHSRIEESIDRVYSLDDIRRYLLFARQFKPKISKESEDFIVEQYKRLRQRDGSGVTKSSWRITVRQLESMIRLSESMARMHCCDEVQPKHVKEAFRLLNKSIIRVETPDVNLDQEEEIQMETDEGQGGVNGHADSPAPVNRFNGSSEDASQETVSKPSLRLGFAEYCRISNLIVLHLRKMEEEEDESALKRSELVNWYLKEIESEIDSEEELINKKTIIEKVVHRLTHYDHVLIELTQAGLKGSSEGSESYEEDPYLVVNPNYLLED

B1: 3' dT50-extension (mixed)
DNA 1: GTTTTCCCAGTCACGACGTTGTAAAACGACGGCCAGTTTTTTTTTTTTTTTTTTTTTTTTTTTTTTTTTTTTTTTTTTTTTTTTTTT
DNA 2: ACTGGCCGTCGTTTTACAACGTCGTGACTGGGAAAAC
Mcm4/6/7 complex [1]
  binding result: binds

B2: Bub-T20 (mixed)
DNA 1: GTTTTCCCAGTCACGACGTTGTAAAACGACTTTTTTTTTTTTTTTTTTTTTACCGAGCTCGAATTCGTAATCATGGTCAT
DNA 2: ATGACCATGATTACGAATTCGAGCTCGGTATTTTTTTTTTTTTTTTTTTTGTCGTTTTACAACGTCGTGACTGGGAAAAC
Mcm4/6/7 complex [2]
  binding result: binds

B3: Bub-T30 (mixed)
DNA 1: GTTTTCCCAGTCACGACGTTGTAAAACGACTTTTTTTTTTTTTTTTTTTTTTTTTTTTTTTACCGAGCTCGAATTCGTAATCATGGTCAT
DNA 2: ATGACCATGATTACGAATTCGAGCTCGGTATTTTTTTTTTTTTTTTTTTTTTTTTTTTTTGTCGTTTTACAACGTCGTGACTGGGAAAAC
Mcm4/6/7 complex [3]
  binding result: binds

B4: Bub-T40 (mixed)
DNA 1: GTTTTCCCAGTCACGACGTTGTAAAACGACTTTTTTTTTTTTTTTTTTTTTTTTTTTTTTTTTTTTTTTTTACCGAGCTCGAATTCGTAATCATGGTCAT
DNA 2: ATGACCATGATTACGAATTCGAGCTCGGTATTTTTTTTTTTTTTTTTTTTTTTTTTTTTTTTTTTTTTTTGTCGTTTTACAACGTCGTGACTGGGAAAAC
Mcm4/6/7 complex [4]
  binding result: binds

B5: Bub-T50 (mixed)
DNA 1: GTTTTCCCAGTCACGACGTTGTAAAACGACTTTTTTTTTTTTTTTTTTTTTTTTTTTTTTTTTTTTTTTTTTTTTTTTTTTACCGAGCTCGAATTCGTAATCATGGTCAT
DNA 2: ATGACCATGATTACGAATTCGAGCTCGGTATTTTTTTTTTTTTTTTTTTTTTTTTTTTTTTTTTTTTTTTTTTTTTTTTTGTCGTTTTACAACGTCGTGACTGGGAAAAC
Mcm4/6/7 complex [4]
  binding result: binds

B6: A-fork[3'] (mixed)
DNA 1: CGCATCGCCCACCTGCCTCTGGTGGAGGAGCTGCGTGCACTGAGGCAGTTGCACCTGAACCAGCTGATCCGTGCCGCTGGCGTGGTGGCCGCCTGCGCCGGAGTC
DNA 2: GGGTGAACCTGCAGGTGGGCAAAGATGTCCTAGCAAGGCACTGGTAGAATGGTGCAACTGCCTCAGTGCACGCAGCTCCTCCACCAGAGGCAGGTGGGCGATGCG
DNA 3: GACTCCGGCGCAGGCGGCCACCACGCCAGCGGCACGGATCAGCTGGTTCA
Mcm4/6/7 complex [5]
  binding result: binds

B7: A-fork[5'] (mixed)
DNA 1: CGCATCGCCCACCTGCCTCTGGTGGAGGAGCTGCGTGCACTGAGGCAGTTGCACCTGAACCAGCTGATCCGTGCCGCTGGCGTGGTGGCCGCCTGCGCCGGAGTC
DNA 2: GGGTGAACCTGCAGGTGGGCAAAGATGTCCTAGCAAGGCACTGGTAGAATGGTGCAACTGCCTCAGTGCACGCAGCTCCTCCACCAGAGGCAGGTGGGCGATGCG
DNA 3: ATTCTACCAGTGCCTTGCTAGGACATCTTTGCCCACCTGCAGGTTCACCC
Mcm4/6/7 complex [5]
  binding result: binds
